The values below come from patent publication US20230151108A1 (UCB, published 2023).

For experiment [1], the target named is T1, human CD9, full-length, expressed on cells (human, UniProt P21926 2-228).
T1 construct: also called Tetraspanin-29
T1 sequence: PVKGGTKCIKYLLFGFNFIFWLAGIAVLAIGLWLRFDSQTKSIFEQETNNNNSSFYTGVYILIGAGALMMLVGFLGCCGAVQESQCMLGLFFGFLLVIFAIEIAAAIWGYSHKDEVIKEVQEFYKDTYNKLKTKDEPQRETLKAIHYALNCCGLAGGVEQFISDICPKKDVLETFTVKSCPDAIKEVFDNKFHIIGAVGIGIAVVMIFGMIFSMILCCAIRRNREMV
The experiment is described as follows: binding to cells expressing full-length CD9 (selection; method not described).

Experiment [2] deals with T2, CD137 peptide P1 (CRD1)-human Fc fusion protein (human, UniProt Q07011 25-68).
T2 construct: Made in Expi293F cells and used as conditioned medium, captured on anti-hIgG Fc biosensors; not shown: human Fc tag at the C-terminus
T2 chain: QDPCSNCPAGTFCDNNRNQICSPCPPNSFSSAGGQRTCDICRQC
Kind of experiment: BLI (Octet RED384), CD137 CRD peptide-Fc on AHC biosensors, Fab-Y at 10 µg/mL; CRD inferred from the peptide binding profile. Here is the method:
DNA sequences coding for each peptide (as shown in Table 7) were ordered from Twist Bioscience in a mammalian expression vector with a human Fc tag at the C-terminus. Each plasmid was used to transfect Expi293F™ cells (Gibcon™) to generate the different peptide-human Fc fusion proteins. For transfections, 850 μl of Expi293F™ cells ([…]) were plated in 48-well blocks and transfected with 3 μg of DNA using the ExpiFectamine™ 293 Transfection Kit (ThermoFisher) following the manufacturer's instructions. Cells were incubated in a 37° C., 5% CO₂ environment with shaking at 225 rpm. After 6 days, cells were pelleted (1000×g, 10 min) and the conditioned medias containing each of the peptides were harvested, quantitated and diluted to 1.7 μg/mL in Expi293™ Expression Medium (ThermoFisher). The conditioned medias were used for binding assessment to our panel of antibodies using the Octet® RED384 System (FortéBio) at room temperature with anti-hIgG Fc Capture (AHC) Biosensors (FortéBio). Firstly, an array of 8 sensors was dipped in kinetics buffer (PBS, 0.1% BSA, 0.02% Tween 20) for 180 seconds to provide a baseline signal. […]
(Biolayer interferometry detects binding as a change in optical thickness at a sensor tip.)

B1: anti-CD9 Fab-Y 7272 (Fab, V domains shown)
VH: QSLEESGGRLVTPGTPLTLTCTVSGFSLSSYAMGWVRQAPGKGLEWIGAIGSITATGYARWAKGRFSISKTSTTVDLKMTSPTTEDTATYFCAREIYVGSAYAFDIWGPGTLVTVSS
VL: AYDMTQTPASVEVAVGDTVTIKCQASQSISNYLAWYQQKPGQPPKLLIYLASTLASGVPSRFKGSGSGTEFTLTISDLECADAATYYCQQGYIDNVNKGFGGGTEVVVK
notes: Tested as Fab-Y: a Fab whose CH1 is joined by a peptide linker to the GCN4 peptide (clone 7P14P); also called VR7272
For B1, in experiment [1], the binding result is “binds”.

B2: anti-CD137 Fab-Y 8475 (Fab, V domains shown)
VH: QSVEESGGRLVTPGTPLTLTCTVSGFSLSTYAMSWVRQAPGKGLEWIGAIWSGGTTDYTSWAKGRFTISKASTTVDLKITSPTTEDTATYFCVRMAVIFNAYTFDSWGPGTLVTVSS
VL: AYDMTQTPSSVSAAVGGTVTIKCQASQNIYSYLAWYQQKPGQRPKLLIYGASTLASGVPSRFKGSGSGTDFTLTISDLECDDAATYYCQQGHSSGNVGNNVFGGGTEVVVK
notes: Tested as Fab-Y: a Fab whose CH1 is joined by a peptide linker to the GCN4 peptide (clone 7P14P); also called VR8475
In the case of B2, the binding result in experiment [2] is recorded as “binds”.
